Our source for the cAMP Rel EC50 (1% HSA), Relative cAMP EC50 and cAMP Rel EC50, nM (in the presence of 1% HSA) values is patent publication US20240270821A1, “GIP/GLP1/GCG TRI-RECEPTOR AGONISTS AND USES THEREOF” (priority 2023, published 2024).

To fix the notation:
T1: human GIP receptor (human) (UniProt P48546)
T1 sequence (looked up): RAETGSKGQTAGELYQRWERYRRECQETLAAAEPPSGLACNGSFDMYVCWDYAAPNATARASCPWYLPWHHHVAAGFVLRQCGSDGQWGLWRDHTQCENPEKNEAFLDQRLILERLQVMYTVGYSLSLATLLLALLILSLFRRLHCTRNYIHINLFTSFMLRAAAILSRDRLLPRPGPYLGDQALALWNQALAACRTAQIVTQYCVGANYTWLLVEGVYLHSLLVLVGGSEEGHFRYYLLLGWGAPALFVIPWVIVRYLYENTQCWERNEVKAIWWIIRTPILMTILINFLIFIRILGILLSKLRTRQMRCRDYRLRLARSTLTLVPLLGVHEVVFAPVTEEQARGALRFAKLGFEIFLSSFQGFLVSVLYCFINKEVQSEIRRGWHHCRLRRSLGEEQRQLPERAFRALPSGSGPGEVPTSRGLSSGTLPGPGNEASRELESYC

B1: Example 660 (peptide)
chain: YXQGTXTSDXSILLDKKAQXAFIEYLEEGGPSSGAPPPEGTGE
modifications: synthetic construct; SITE 2: note = 2-Aminoisobutyric Acid; SITE 6: note = alpha-methyl-2-fluoro-L-phenylalanine; SITE 10: note = 3-(4-Pyridyl)-L-alanine; SITE 17: note = Lysine is chemically modified through conjugation of the epsilon-amino group of the Lysine side chain with (gamma-Glu)2-CO-(CH2)1
B2: Example 665 (peptide)
chain: B1 chain with K16X, Y25X, E39S
modifications: synthetic construct; SITE 2: note = 2-Aminoisobutyric Acid; SITE 6: note = alpha-methyl-2-fluoro-L-phenylalanine; SITE 10: note = 3-(4-Pyridyl)-L-alanine; SITE 16: note = L-ornithine; SITE 17: note = Lysine is chemically modified through conjugation of the epsilon-amino group of the Lysine side chai
B3: Example 662 (peptide)
chain: B1 chain with E39S
modifications: synthetic construct; SITE 2: note = 2-Aminoisobutyric Acid; SITE 6: note = alpha-methyl-2-fluoro-L-phenylalanine; SITE 10: note = 3-(4-Pyridyl)-L-alanine; SITE 17: note = Lysine is chemically modified through conjugation of the epsilon-amino group of the Lysine side chain with (2-[2-(2-Amino-ethoxy))
B4: Example 668 (peptide)
chain: B1 chain with Y25X, E39S, T41G
modifications: synthetic construct; SITE 2: note = 2-Aminoisobutyric Acid; SITE 6: note = alpha-methyl-2-fluoro-L-phenylalanine; SITE 10: note = 3-(4-Pyridyl)-L-alanine; SITE 17: note = Lysine is chemically modified through conjugation of the epsilon-amino group of the Lysine side chain with (gamma-Glu)2-CO-(CH2)1
B5: Example 664 (peptide)
chain: B1 chain with Y25X, E39S
modifications: synthetic construct; SITE 2: note = 2-Aminoisobutyric Acid; SITE 6: note = alpha-methyl-2-fluoro-L-phenylalanine; SITE 10: note = 3-(4-Pyridyl)-L-alanine; SITE 17: note = Lysine is chemically modified through conjugation of the epsilon-amino group of the Lysine side chain with (gamma-Glu)2-CO-(CH2)1
B6: Example 667 (peptide)
chain: B1 chain with Y25X, E39S, T41E
modifications: synthetic construct; SITE 2: note = 2-Aminoisobutyric Acid; SITE 6: note = alpha-methyl-2-fluoro-L-phenylalanine; SITE 10: note = 3-(4-Pyridyl)-L-alanine; SITE 17: note = Lysine is chemically modified through conjugation of the epsilon-amino group of the Lysine side chain with (gamma-Glu)2-CO-(CH2)1
B7: Example 663 (peptide)
chain: B1 chain with E27X, E39S
modifications: synthetic construct; SITE 2: note = 2-Aminoisobutyric Acid; SITE 6: note = alpha-methyl-2-fluoro-L-phenylalanine; SITE 10: note = 3-(4-Pyridyl)-L-alanine; SITE 17: note = Lysine is chemically modified through conjugation of the epsilon-amino group of the Lysine side chain with (2-[2-(2-Amino-ethoxy))
B8: Example 669 (peptide)
chain: B1 chain with Y25X, E39S
modifications: synthetic construct; SITE 2: note = 2-Aminoisobutyric Acid; SITE 6: note = alpha-methyl-2-fluoro-L-phenylalanine; SITE 10: note = 3-(4-Pyridyl)-L-alanine; SITE 17: note = Lysine is chemically modified through conjugation of the epsilon-amino group of the Lysine side chain with (2-[2-(2-Amino-ethoxy))
B9: Example 661 (peptide)
chain: B1 chain with E27X, E39S
modifications: synthetic construct; SITE 2: note = 2-Aminoisobutyric Acid; SITE 6: note = alpha-methyl-2-fluoro-L-phenylalanine; SITE 10: note = 3-(4-Pyridyl)-L-alanine; SITE 17: note = Lysine is chemically modified through conjugation of the epsilon-amino group of the Lysine side chain with (gamma-Glu)2-CO-(CH2)1
B10: Example 666 (peptide)
chain: B1 chain with Y25X, E39S, T41S
modifications: synthetic construct; SITE 2: note = 2-Aminoisobutyric Acid; SITE 6: note = alpha-methyl-2-fluoro-L-phenylalanine; SITE 10: note = 3-(4-Pyridyl)-L-alanine; SITE 17: note = Lysine is chemically modified through conjugation of the epsilon-amino group of the Lysine side chain with (gamma-Glu)2-CO-(CH2)1
B11: Example 64 (peptide)
chain: YXQGTFTSDFSXXLDKKAQXAFIEYLLEGGPSSGAPPPGGSG
modifications: synthetic construct; SITE 2: note = 2-Aminoisobutyric Acid; SITE 12: note = L-ornithine; SITE 13: note = alpha-methyl-leucine; SITE 17: note = Lysine is chemically modified through conjugation of the epsilon-amino group of the Lysine side chain with (2-[2-(2-Amino-ethoxy)-ethoxy]-acetyl)-(gamma-Glu)
B12: Example 65 (peptide)
chain: B11 chain with G42E
modifications: synthetic construct; SITE 2: note = 2-Aminoisobutyric Acid; SITE 12: note = L-ornithine; SITE 13: note = alpha-methyl-leucine; SITE 17: note = Lysine is chemically modified through conjugation of the epsilon-amino group of the Lysine side chain with (2-[2-(2-Amino-ethoxy)-ethoxy]-acetyl)-(gamma-Glu)

Changes are numbered by the printed parent chain.

Sequence of hGLP-1R (P43220 24-463): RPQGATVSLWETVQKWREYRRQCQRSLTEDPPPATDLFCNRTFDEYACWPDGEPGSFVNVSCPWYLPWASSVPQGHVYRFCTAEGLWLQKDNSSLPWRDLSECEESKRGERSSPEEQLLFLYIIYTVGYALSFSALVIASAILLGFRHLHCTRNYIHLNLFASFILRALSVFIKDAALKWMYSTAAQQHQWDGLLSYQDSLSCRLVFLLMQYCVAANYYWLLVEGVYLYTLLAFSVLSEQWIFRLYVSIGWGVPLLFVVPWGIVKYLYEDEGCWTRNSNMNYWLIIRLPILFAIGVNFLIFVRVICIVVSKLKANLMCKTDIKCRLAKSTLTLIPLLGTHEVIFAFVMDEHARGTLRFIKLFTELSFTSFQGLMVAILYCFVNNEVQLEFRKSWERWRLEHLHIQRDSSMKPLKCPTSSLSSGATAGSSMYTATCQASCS

One assay has as its target hGLP-1R (Homo sapiens, UniProt P43220). In words: cell-based or functional assay.
Molecule B1 yielded a cAMP Rel EC50 (1% HSA) of 76.9 nM.
Same read-out and setting: as for B2, the figure is 32.8 nM; as for B3, 84.5 nM; as for B4, 27.1 nM.
Still for that read-out and setting: as for B5, the figure is 27.7 nM.
Molecule B6 came in with a cAMP Rel EC50 (1% HSA) of 33 nM.
On the same count and under the same terms, as for B7, the figure is 79 nM.
Still for that read-out and setting: as for B8, the figure is 27.3 nM; as for B9, 50.9 nM.
The same measure, in the same setting: for B10 the value was 32.3 nM.
As for B11, the Relative cAMP EC50 is 4.08 nM and the cAMP Rel EC50, nM (in the presence of 1% HSA) was found to be 397 nM.
In the same order, the values of B12 are 4.21 nM and 462 nM.

Another assay deals with human glucagon receptor (human) (UniProt P47871). In words: cell-based or functional assay.
Sequence of human glucagon receptor (human) (P47871 26-477): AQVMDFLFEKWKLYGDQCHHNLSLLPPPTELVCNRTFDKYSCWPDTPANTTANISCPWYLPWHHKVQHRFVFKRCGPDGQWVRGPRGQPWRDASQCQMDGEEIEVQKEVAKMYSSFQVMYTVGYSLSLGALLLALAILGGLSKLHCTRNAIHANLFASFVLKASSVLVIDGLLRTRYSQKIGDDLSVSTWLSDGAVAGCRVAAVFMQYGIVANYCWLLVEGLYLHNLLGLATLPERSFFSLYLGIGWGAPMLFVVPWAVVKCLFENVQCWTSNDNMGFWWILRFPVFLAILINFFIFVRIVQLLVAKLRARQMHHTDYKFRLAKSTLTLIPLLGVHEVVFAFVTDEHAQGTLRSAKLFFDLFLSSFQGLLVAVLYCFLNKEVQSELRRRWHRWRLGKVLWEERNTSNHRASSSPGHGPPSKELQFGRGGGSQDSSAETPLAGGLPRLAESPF
Molecule B1 came in with a cAMP Rel EC50 (1% HSA) of 455 nM.
On the same count and under the same terms, for B2 the value was 285 nM; for B3, 561 nM.
The same measure, in the same setting: for B4 the value was 203 nM; for B5, 179 nM; for B6, 215 nM.
Same read-out and setting: for B7 the value was 226 nM; for B8, 173 nM; for B9, 160 nM.
For B10, the cAMP Rel EC50 (1% HSA) was determined as 224 nM.
Turning to B11, the Relative cAMP EC50 turned out to be 4.94 nM and the cAMP Rel EC50, nM (in the presence of 1% HSA) turned out to be 626 nM.
For B12, in that order: 6.49 nM and 808 nM.

In a further assay the target is T1, human GIP receptor (human). The experiment in a line: cell-based or functional assay.
Molecule B1 showed a cAMP Rel EC50 (1% HSA) of 4.64 nM.
The same measure, in the same setting: for B2 the value was 2.1 nM; for B3, 4.69 nM.
The same measure, in the same setting: as for B4, the figure is 1.69 nM.
Still for that read-out and setting: for B5 the value was 1.18 nM; for B6, 1.46 nM; for B7, 10.2 nM.
Consider B8, for which the cAMP Rel EC50 (1% HSA) came to 1.41 nM.
Same read-out and setting: for B9 the value was 4.62 nM; for B10, 1.39 nM.
As for B11, the Relative cAMP EC50 came to 0.309 nM and the cAMP Rel EC50, nM (in the presence of 1% HSA) turned out to be 24.9 nM.
For B12, in that order: 0.739 nM and 30.2 nM.
